Source: US20260062464A1

Key:
[1] = biological target: recombinant N2 neuraminidase of A/Moscow/10/1999 (H3N2) (Influenza A virus A/Moscow/10/1999 (H3N2)); test: BLI, NA on biosensor, Fab in solution, 1:1 fit
[2] = biological target: recombinant N2 neuraminidase of A/Wisconsin/67/2005 (H3N2) (Influenza A virus A/Wisconsin/67/2005 (H3N2)); test: BLI, NA on biosensor, Fab in solution, 1:1 fit
[3] = biological target: recombinant N2 neuraminidase of A/Wisconsin/67/2005 (H3N2) (Influenza A virus A/Wisconsin/67/2005 (H3N2)); test: ELISA on plate-coated recombinant NA, absorbance 450 nm

Binder	Kd [1]	koff [1]	kon [1]	Kd [2]	koff [2]	kon [2]	EC50 (read off the curve) [3]
Fab of NDS.1 (Fab, V domains shown) VH: QVQLRQWGAGLLKPSETLSLTCDVYGGSFNFYFWTWIRQPPGKGLEWLGEITHSGSATYIPSLKSRVTLSVDTSKGQFSLKLTSVNVADTAVYYCAGLPIDYDTVHLGYYPMDVWGQGTPVTVSS VL: DIQMTQSPSSLSASVGDRVTITCRASQGIRNYLAWYQQKPGKVPKLLIYGASTLQSGVPSRFSGSGSGTDFSLTISSLQPEDIATYFCQEYNNAPRTFGQGTKVEIK	0.000217 µM	1.16e-05 s⁻¹	53300 M⁻¹ s⁻¹	0.0756 µM	0.00431 s⁻¹	57000 M⁻¹ s⁻¹	
Fab of NDS.1.1 (Fab, V domains shown) VH: QVQIQQWGAGLLKPSDTLSLTCSVYGGSFNFYYWTWVRQPPGKGLEWLAEINHSGSINYIPSLNSRVALSVDTSKGQFSLRLSSVTAADTAVYYCTGVPIDYESLHLGYYPMDVWGQGTPVIVSS VL: DIQMTQSPSSLSASVGDRVTITCRASQGISNYLAWWQQKPGQVPKLLIYAASTLQSGVPSRFSGSGSGTDFSLTISSLQPDDVAIYYCQKYNSAPRTFGQGTKVEIK	0.00831 µM	0.000187 s⁻¹	22500 M⁻¹ s⁻¹	0.136 µM	0.00565 s⁻¹	41500 M⁻¹ s⁻¹	
NDS.6 monoclonal antibody (antibody, V domains shown) VH: QVQLVQSGPEVKKPGASVKVSCKASGYNFNRYGLTWVRQAPGQGLEWMGWISTYNSDTIYAREFRGRVTLTTDTSTRTAYMELRSLISADTAVYYCARDNVEEAFPISYYFDHWGQGTLVSVSS VL: QSALTQPRSVSGSPGQSVTISCTGTSSDVGLYNYVSWYQHHPGKAPKFLIYDVTKRPSGVPDRFSGSKSGNTASLTISGLQAEDEADYYCCSYVGSYILVFGGGTKVTVL							0.2 mg/L
Fab of NDS.3 (Fab, V domains shown) VH: EVQLVESGGGLVKPGGSLRLSCAASGFTFSDYSMTWIRQIPGKGLEWLSYTTSSGRPIFYADSVKGRFTMSRDNAKMSVYLQMNSLRDADSAVYYCARGDPHYIWGTYLDSWGPGTLVTVSS VL: QSALTQPPSASGSPGQSVTISCTGTTSDFGDHNYVSWYQQRPGEAPKLIIYDVSKRPSGVPDRFSGSKSGNTASLTVSRLQADDEANYYCSSIEGSNTLLFGGGTKLTVL	0.0189 µM	0.000517 s⁻¹	27400 M⁻¹ s⁻¹	0.0609 µM	0.00527 s⁻¹	86500 M⁻¹ s⁻¹	
NDS.5 monoclonal antibody (antibody, V domains shown) VH: QLRLQESGPGLVKPSETLSLTCTVSGGSITSSPYYWGWIRQPPGKGLEWIGSIYYSGSTYYNPSLRSRVTISLDTSMNQFSLKLSSVTAADTAVYYCAEEYYDFWRTQDWGQGTLVTVSS VL: EIVLTQSPGTLSLSPGERATISCRASQSVSGRNLAWYQQKPGQAPRLLIYAASNRATGIPDRFSGSGSGTDFTLTISRLEPEDFAVYYCQQYGTSKTFGQGTKVEIK							0.05 mg/L
